Assay results reported in publication PMC9082959, “Mechanism of Assembly of the Non-Covalent Spectrin Tetramerization Domain from Intrinsically Disordered Partners” (Journal of molecular biology, 2013).

How the values were obtained:
Experiment in all cases: ITC; β16β17 at 25–50 μM in the cell titrated with 15–20 injections to 2–2.5 eq of α0α1; one-site binding model; PBS (50 mM sodium phosphate, 150 mM NaCl, pH 7.04), 25 °C; mutants only against the wild-type partner
Conditions in all cases: both partners purified
β16β17 S57A = biological target: T1, β16β17 S57A (human, UniProt P11277 1898-2083, S2060A)
T1 construct: erythrocyte β-spectrin, human, residues 1898-2083 (β16β17); mutant of m2; also called S2060A; source: E. coli C41(DE3), purified (Ni2+ agarose, thrombin cleavage, gel filtration)
T1 sequence (looked up): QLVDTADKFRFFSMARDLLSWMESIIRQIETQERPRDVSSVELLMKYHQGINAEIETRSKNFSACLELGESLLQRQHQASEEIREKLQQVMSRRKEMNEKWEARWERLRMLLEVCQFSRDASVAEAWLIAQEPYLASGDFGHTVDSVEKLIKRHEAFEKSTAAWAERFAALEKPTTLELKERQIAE

β16β17 K43A = biological target: T2, β16β17 K43A (human, UniProt P11277 1898-2083, K2046A)
T2 construct: erythrocyte β-spectrin, human, residues 1898-2083 (β16β17); mutant of m2; also called K2046A; source: E. coli C41(DE3), purified (Ni2+ agarose, thrombin cleavage, gel filtration)
T2 sequence (looked up): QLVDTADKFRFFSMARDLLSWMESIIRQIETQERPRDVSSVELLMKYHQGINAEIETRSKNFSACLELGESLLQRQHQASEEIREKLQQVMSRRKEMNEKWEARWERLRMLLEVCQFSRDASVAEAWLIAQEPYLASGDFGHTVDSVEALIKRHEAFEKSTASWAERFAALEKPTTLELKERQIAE

β16β17 A24G = biological target: T3, β16β17 A24G (human, UniProt P11277 1898-2083, A2027G)
T3 construct: erythrocyte β-spectrin, human, residues 1898-2083 (β16β17); mutant of m2; also called A2027G; source: E. coli C41(DE3), purified (Ni2+ agarose, thrombin cleavage, gel filtration)
T3 sequence (looked up): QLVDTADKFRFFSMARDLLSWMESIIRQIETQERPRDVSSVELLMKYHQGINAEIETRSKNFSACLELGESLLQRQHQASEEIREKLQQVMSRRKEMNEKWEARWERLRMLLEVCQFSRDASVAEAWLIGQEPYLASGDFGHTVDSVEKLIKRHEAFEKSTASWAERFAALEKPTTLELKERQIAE

β16β17 A50G = biological target: T4, β16β17 A50G (human, UniProt P11277 1898-2083, A2053G)
T4 construct: erythrocyte β-spectrin, human, residues 1898-2083 (β16β17); mutant of m2; also called A2053G; source: E. coli C41(DE3), purified (Ni2+ agarose, thrombin cleavage, gel filtration)
T4 sequence (looked up): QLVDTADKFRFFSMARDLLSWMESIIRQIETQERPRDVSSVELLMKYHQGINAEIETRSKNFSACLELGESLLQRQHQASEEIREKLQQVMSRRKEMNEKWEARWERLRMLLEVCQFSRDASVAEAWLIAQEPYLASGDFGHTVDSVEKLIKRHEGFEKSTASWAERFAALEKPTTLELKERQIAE

β16β17 D39A = biological target: T5, β16β17 D39A (human, UniProt P11277 1898-2083, D2042A)
T5 construct: erythrocyte β-spectrin, human, residues 1898-2083 (β16β17); mutant of m2; also called D2042A; source: E. coli C41(DE3), purified (Ni2+ agarose, thrombin cleavage, gel filtration)
T5 sequence (looked up): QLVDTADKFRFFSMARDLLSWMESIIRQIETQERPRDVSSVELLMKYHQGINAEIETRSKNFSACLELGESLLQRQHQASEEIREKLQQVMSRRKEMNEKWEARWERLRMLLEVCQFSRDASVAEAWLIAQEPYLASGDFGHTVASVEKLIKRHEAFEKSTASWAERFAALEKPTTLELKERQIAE

B1: α0α1 (erythrocyte α-spectrin residues 2–163), wild type (domain or fragment, human, UniProt P02549 2-163, looked up)
chain: EQFPKETVVESSGPKVLETAEEIQERRQEVLTRYQSFKERVAERGQKLEDSYHLQVFKRDADDLGKWIMEKVNILTDKSYEDPTNIQGKYQKHQSLEAEVQTKSRLMSELEKTREERFTMGHSAHEETKAHIEELRHLWDLLLELTLEKGDQLLRALKFQQY
notes: synthetic gene (GenScript) in a modified pRSETA plasmid; also called α1α0; source: E. coli C41(DE3), purified (Ni2+ agarose, thrombin cleavage, gel filtration)
Work on B1 yielded a Ka (β16β17 S57A) of 1.5e+06 M⁻¹, a Ka (β16β17 K43A) of 1.8e+06 M⁻¹ and a Ka (β16β17 A24G) of 242000 M⁻¹. It also gave a Ka (β16β17 A50G) of 163000 M⁻¹ and a Ka (β16β17 D39A) of 470000 M⁻¹.
